The values below come from the supplement of paper PMC5998384.

The subject of data set [1] is HeLa Kyoto. Briefly: solubility in G1/S (NP-40 vs SDS abundance) (log2 ratio); higher = more soluble. The settings on record: cell cycle stage: G1/S.
For data set [2], the system named is HeLa Kyoto. Briefly: melting temperature (median over replicates), in situ; higher = more thermally stable.
For data set [3], the system named is HeLa Kyoto. The data set can be described thus: solubility change mitosis vs G1/S (difference of NP-40 vs SDS log2 ratios) (log2 ratio difference); higher = more soluble in mitosis.
For data set [4], the system named is HeLa Kyoto. The data set can be described thus: thermal stability score vs G1/S (z-score of summed log2 fold changes over temperatures); higher = more thermally stable than in G1/S.
[5] abbreviates: cell cycle stage: early G1 (4.5 h after nocodazole release).
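Wherever melting temperature (median over replicates), in situ is given: HeLa Kyoto cells synchronized by double thymidine or nocodazole block, proteins quantified by TMT10plex mass spectrometry, three independent biological replicates.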
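Wherever solubility change mitosis vs G1/S (difference of NP-40 vs SDS log2 ratios) is given: synchronized HeLa Kyoto cells (double thymidine block for G1/S, nocodazole release for mitosis), protein amounts in NP-40 versus SDS lysates quantified by mass spectrometry, three biological replicates.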
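Wherever solubility in G1/S (NP-40 vs SDS abundance) is given: HeLa Kyoto cells arrested at G1/S by double thymidine block, proteins quantified by TMT10plex mass spectrometry in mild NP-40 versus SDS extracts, three biological replicates.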
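Wherever thermal stability score vs G1/S (z-score of summed log2 fold changes over temperatures) is given: synchronized HeLa Kyoto cells, proteins quantified by TMT10plex mass spectrometry, three biological replicates, mitosis taken 0.5 h after nocodazole release, G1/S directly after double thymidine block.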

As to “MSGASSSEQNNNSYETKTPNLRMSEKKCSWASYMTNSPTLIVMIGLPARGKTYVSKKLTRYLNWIGVPTKVFNLGVYRREAVKSYKSYDFFRHDNEEAMKIRKQCALVALEDVKAYLTEENGQIAVFDATNTTRERRDMILNFAEQNSFKVFFVESVCDDPDVIAANILEVKVSSPDYPERNRENVMEDFLKRIECYKVTYRPLDPDNYDKDLSFIKVINVGQRFLVNRVQDYIQSKIVYYLMNIHVQPRTIYLCRHGESEFNLLGKIGGDSGLSVRGKQFAQALRKFLEEQEITDLKVWTSQLKRTIQTAESLGVPYEQWKILNEIDAGVCEEMTYAEIEKRYPEEFALRDQEKYLYRYPGGESYQDLVQRLEPVIMELERQGNVLVISHQAVMRCLLAYFLDKGADELPYLRCPLHTIFKLTPVAYGCKVETIKLNVEAVNTHRDKPTNNFPKNQTPVRMRRNSFTPLSSSNTIRRPRNYSVGSRPLKPLSPLRAQDMQEGAD [PFKFB2]”, the “solubility in G1/S (log2)” value in data set [1] came to 0.16. Moreover, the figures for the melting temperature in data set [2] (cell cycle stage: G1/S) and in data set [2] (cell cycle stage: mitosis) were 53.9 °C and 53.3 °C, respectively. Besides, the “solubility change mitosis (log2)” value in data set [3] is -0.071. Further, the thermal stability score in data set [4] (setting [5]) amounted to 0.139; in data set [4] (cell cycle stage: mitosis) it was 0.693.
With “MSLNPPIFLKRSEENSSKFVETKQSQTTSIASEDPLQNLCLASQEVLQKAQQSGRSKCLKCGGSRMFYCYTCYVPVENVPIEQIPLVKLPLKIDIIKHPNETDGKSTAIHAKLLAPEFVNIYTYPCIPEYEEKDHEVALIFPGPQSISIKDISFHLQKRIQNNVRGKNDDPDKPSFKRKRTEEQEFCDLNDSKCKGTTLKKIIFIDSTWNQTNKIFTDERLQGLLQVELKTRKTCFWRHQKGKPDTFLSTIEAIYYFLVDYHTDILKEKYRGQYDNLLFFYSFMYQLIKNAKCSGDKETGKLTH [DTWD1]”, in data set [1], the “solubility in G1/S (log2)” value worked out at 0.19. Moreover, the melting temperature in data set [2] (cell cycle stage: G1/S) is 50.9 °C; in data set [2] (cell cycle stage: mitosis), 50.6 °C. The “solubility change mitosis (log2)” value in data set [3] is -0.213. Further, the thermal stability score in data set [4] (setting [5]) was 1.51; in data set [4] (cell cycle stage: mitosis), 1.96.
Regarding “MQTPEVPAERSPRRRSISGTSTSEKPNSMDTANTSPFKVPGFFSKRLKGSIKRTKSQSKLDRNTSFRLPSLRSTDDRSRGLPKLKESRSHESLLSPCSTVECLDLGRGEPVSVKPLHSSILGQDFCFEVTYLSGSKCFSCNSASERDKWMENLRRTVQPNKDNCRRAENVLRLWIIEAKDLAPKKKYFCELCLDDTLFARTTSKTKADNIFWGEHFEFFSLPPLHSITVHIYKDVEKKKKKDKNNYVGLVNIPTASVTGRQFVEKWYPVSTPTPNKGKTGGPSIRIKSRFQTITILPMEQYKEFAEFVTSNYTMLCSVLEPVISVRNKEELACALVHILQSTGRAKDFLTDLVMSEVDRCGEHDVLIFRENTIATKSIEEYLKLVGQQYLHDALGEFIKALYESDENCEVDPSKCSSSELIDHQSNLKMCCELAFCKIINSYCVFPRELKEVFASWKQQCLNRGKQDISERLISASLFLRFLCPAIMSPSLFNLMQEYPDDRTSRTLTLIAKVIQNLANFAKFGNKEEYMAFMNDFLEHEWGGMKRFLLEISNPDTISNTPGFDGYIDLGRELSVLHSLLWEVVSQLDKGENSFLQATVAKLGPLPRVLADITKSLTNPTPIQQQLRRFTEHNSSPNVSGSLSSGLQKIFEDPTDSDLHKLKSPSQDNTDSYFRGKTLLLVQQASSQSMTYSEKDERESSLPNGRSVSLMDLQDTHAAQVEHASVMLDVPIRLTGSQLSITQVASIKQLRETQSTPQSAPQVRRPLHPALNQPGGLQPLSFQNPVYHLNNPIPAMPKASIDSSLENLSTASSRSQSNSEDFKLSGPSNSSMEDFTKRSTQSEDFSRRHTVPDRHIPLALPRQNSTGQAQIRKVDQGGLGARAKAPPSLPHSASLRSTGSMSVVSAALVAEPVQNGSRSRQQSSSSRESPVPKVRAIQRQQTQQVQSPVDSATMSPVERTAAWVLNNGQYEEDVEETEQNLDEAKHAEKYEQEITKLKERLRVSSRRLEEYERRLLVQEQQMQKLLLEYKARLEDSEERLRRQQEEKDSQMKSIISRLMAVEEELKKDHAEMQAVIDAKQKIIDAQEKRIVSLDSANTRLMSALTQVKERYSMQVRNGISPTNPTKLSITENGEFKNSSC [RASAL2]”, the “solubility in G1/S (log2)” value in data set [1] was determined as 0.0337. Further, the melting temperature is 49 °C in data set [2] (cell cycle stage: G1/S) and 49.4 °C in data set [2] (cell cycle stage: mitosis). The “solubility change mitosis (log2)” value in data set [3] is -0.0989. Further, the thermal stability score in data set [4] (setting [5]) turned out to be 1.04; in data set [4] (cell cycle stage: mitosis), 2.25.
In the case of “MAAAAECDVVMAATEPELLDDQEAKREAETFKEQGNAYYAKKDYNEAYNYYTKAIDMCPKNASYYGNRAATLMMLGRFREALGDAQQSVRLDDSFVRGHLREGKCHLSLGNAMAACRSFQRALELDHKNAQAQQEFKNANAVMEYEKIAETDFEKRDFRKVVFCMDRALEFAPACHRFKILKAECLAMLGRYPEAQSVASDILRMDSTNADALYVRGLCLYYEDCIEKAVQFFVQALRMAPDHEKACIACRNAKALKAKKEDGNKAFKEGNYKLAYELYTEALGIDPNNIKTNAKLYCNRGTVNSKLRKLDDAIEDCTNAVKLDDTYIKAYLRRAQCYMDTEQYEEAVRDYEKVYQTEKTKEHKQLLKNAQLELKKSKRKDYYKILGVDKNASEDEIKKAYRKRALMHHPDRHSGASAEVQKEEEKKFKEVGEAFTILSDPKKKTRYDSGQDLDEEGMNMGDFDPNNIFKAFFGGPGGFSFEASGPGNFFFQFG [DNAJC7]”, in data set [1], the “solubility in G1/S (log2)” value was determined as 0.556. Besides, the melting temperature turned out to be 48.8 °C in data set [2] (cell cycle stage: G1/S) and 49.3 °C in data set [2] (cell cycle stage: mitosis). In addition, the “solubility change mitosis (log2)” value in data set [3] is -0.0134. Moreover, the thermal stability score came to 0.609 in data set [4] (setting [5]) and 1.11 in data set [4] (cell cycle stage: mitosis).
